{"source": "patent US6641994B2", "about": "“Methods of identifying anti-viral agents” (Pharmacia & Upjohn Company, priority 1999, dated 2003)", "molecules": {"B1": {"name": "Δ12; Δ24, 26; Δ31, 32: E7 with combined point mutations Δ12, Δ24, 26 and Δ31, 32 (protein, UniProt P03129 1-98, looked up, variant M12* C24* E26* S31* S32*)", "Protein E7": "MHGDTPTLHEYLDLQPETTDLYYQLNDEEEDEIDGPAGQAEPDRAHYNIVTFCCKCDSTLRLCVQSTHVDIRTLEDLLMGTLGIVCPICSQKP", "modifications": "GST fusion"}, "B2": {"name": "HPV E7(1-69): HPV16 E7 truncation, residues 1-69, GST fusion (protein)", "chain": "MHGDTPTLHEYMLDLQPETTDLYCYEQLNDSSEEEDEIDGPAGQAEPDRAHYNIVTFCCKCDSTLRLCV", "modifications": "also: GST fusion partner left off", "notes": "HPV16 E7 truncation, residues 1-69, GST fusion"}, "B3": {"name": "GST-HPV16-E7(16-98): GST-E7 construct encoding HPV16 amino acids 16-98 (protein)", "chain": "QPETTDLYCYEQLNDSSEEEDEIDGPAGQAEPDRAHYNIVTFCCKCDSTLRLCVQSTHVDIRTLEDLLMGTLGIVCPICSQKP", "modifications": "left off: a dimerising Fc or GST"}, "B4": {"name": "HPV6b: low risk-derived E7 from HPV6b, expressed as a GST fusion protein (protein)", "chain": "MHGRHVTLKDIVLDLQPPDPVGLHCYEQLVDSSEDEVDEVDGQDSQPLKQHFQIVTCCCGCDSNVRLVVQCTETDIREVQQLLLGTLNIVCPICAPKT", "modifications": "left off: a dimerising Fc or GST"}, "B5": {"name": "GST-31E7: HPV31 E7 protein expressed as a GST fusion protein (protein)", "chain": "MRGETPTLQDYVLDLQPEATDLHCYEQLPDSSDEEDVIDSPAGQAEPDTSNYNIVTFCCQCKSTLRLCVQSTQVDIRILQELLMGSFGIVCPNCSTRL", "modifications": "left off: a dimerising Fc or GST"}, "B6": {"name": "HPV E7(1-87): HPV16 E7 truncation, residues 1-87, GST fusion (protein)", "chain": "MHGDTPTLHEYMLDLQPETTDLYCYEQLNDSSEEEDEIDGPAGQAEPDRAHYNIVTFCCKCDSTLRLCVQSTHVDIRTLEDLLMGTL", "modifications": "left off: a dimerising Fc or GST", "notes": "HPV16 E7 truncation, residues 1-87, GST fusion"}, "B7": {"name": "Δ12; Δ24, 26: E7 with combined point mutations Δ12 and Δ24, 26 (protein, UniProt P03129 1-98, looked up, variant M12* C24* E26*)", "Protein E7": "MHGDTPTLHEYLDLQPETTDLYYQLNDSSEEEDEIDGPAGQAEPDRAHYNIVTFCCKCDSTLRLCVQSTHVDIRTLEDLLMGTLGIVCPICSQKP", "modifications": "GST fusion"}, "B8": {"name": "GST-HPV16-E7(9-98): GST-E7 construct encoding HPV16 amino acids 9-98 (protein)", "chain": "HEYMLDLQPETTDLYCYEQLNDSSEEEDEIDGPAGQAEPDRAHYNIVTFCCKCDSTLRLCVQSTHVDIRTLEDLLMGTLGIVCPICSQKP", "modifications": "left off: a dimerising Fc or GST"}}, "key": {"cyclin A/CDK2": {"molecular_target": "T1, cyclin A/CDK2 (Homo sapiens, UniProt P20248+P24941)", "T1 construct": "hemagglutinin (HA); made in house; host or cells: Sf9 or High Five insect cells, baculovirus co-infection", "T1 sequence (P20248 whole entry, one chain of several)": "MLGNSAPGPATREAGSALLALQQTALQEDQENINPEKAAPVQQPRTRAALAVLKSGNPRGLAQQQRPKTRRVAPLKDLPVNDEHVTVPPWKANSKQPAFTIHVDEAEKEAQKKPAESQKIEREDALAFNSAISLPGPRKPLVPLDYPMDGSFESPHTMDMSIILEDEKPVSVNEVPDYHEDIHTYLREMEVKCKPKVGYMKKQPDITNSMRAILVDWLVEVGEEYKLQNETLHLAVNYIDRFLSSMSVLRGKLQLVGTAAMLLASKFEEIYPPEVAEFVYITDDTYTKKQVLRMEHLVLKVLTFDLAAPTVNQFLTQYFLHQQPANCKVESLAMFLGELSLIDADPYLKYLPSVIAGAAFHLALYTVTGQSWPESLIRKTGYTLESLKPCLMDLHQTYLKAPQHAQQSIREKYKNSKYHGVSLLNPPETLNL", "format": "biochemical"}, "CDK2": {"molecular_target": "T2, CDK2 (Homo sapiens, UniProt P20248+P24941)", "T2 construct": "hemagglutinin (HA); made in house; host or cells: Sf9 or High Five insect cells, baculovirus co-infection", "T2 sequence (P20248 whole entry, one chain of several)": "as above", "format": "biochemical"}, "pRb": {"molecular_target": "T3, pRb (Homo sapiens, UniProt P06400)", "T3 construct": "purchased QED Bioscience Inc", "T3 sequence (P06400 1-928)": "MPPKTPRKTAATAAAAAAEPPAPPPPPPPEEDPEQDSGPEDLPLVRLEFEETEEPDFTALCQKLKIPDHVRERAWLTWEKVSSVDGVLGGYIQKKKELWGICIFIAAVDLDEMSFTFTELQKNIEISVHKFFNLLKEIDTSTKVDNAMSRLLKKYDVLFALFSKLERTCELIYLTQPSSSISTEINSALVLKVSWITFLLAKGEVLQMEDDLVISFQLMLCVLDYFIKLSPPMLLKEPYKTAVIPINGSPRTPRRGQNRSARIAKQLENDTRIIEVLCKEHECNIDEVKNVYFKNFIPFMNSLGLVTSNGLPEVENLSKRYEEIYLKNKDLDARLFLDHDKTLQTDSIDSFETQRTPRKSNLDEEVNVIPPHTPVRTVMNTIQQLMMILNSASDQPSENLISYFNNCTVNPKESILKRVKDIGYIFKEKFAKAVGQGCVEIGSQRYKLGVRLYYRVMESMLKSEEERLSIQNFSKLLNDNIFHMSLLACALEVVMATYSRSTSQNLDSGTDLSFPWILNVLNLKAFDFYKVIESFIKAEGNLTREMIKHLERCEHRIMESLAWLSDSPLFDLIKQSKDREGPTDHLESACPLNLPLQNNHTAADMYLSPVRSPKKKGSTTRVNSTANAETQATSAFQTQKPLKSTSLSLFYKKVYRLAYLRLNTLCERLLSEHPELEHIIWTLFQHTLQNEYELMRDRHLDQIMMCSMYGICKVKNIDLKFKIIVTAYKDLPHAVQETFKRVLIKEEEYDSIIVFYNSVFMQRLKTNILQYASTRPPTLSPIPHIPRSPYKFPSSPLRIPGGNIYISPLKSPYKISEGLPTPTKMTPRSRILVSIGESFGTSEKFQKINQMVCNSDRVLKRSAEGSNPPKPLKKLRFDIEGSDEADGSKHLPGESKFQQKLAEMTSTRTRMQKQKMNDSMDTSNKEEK", "test": "E7 binding assay (GST-E7 on glutathione-agarose beads), pRb", "procedure": "For HPV31E7, the amplification product was subcloned into pGEX-4T-3 previously digested with BamHI, while HPV6b and HPV16 E7 amplification products were subcloned into pGEX-4T-3 previously digested with BamHI and XhoI. Proper orientation was determined using restriction mapping, sequence analysis was carried out using Perkin-Elmer ABI-Prism® technology, and the expression constructs were individually transfected into a JM 109 strain of E. coli. Bacteria in log-growth phase were harvested by centrifugation after a four hour induction with 0.5 mM IPTG at 30° C. […] After extensive washing with PBS, the GST-E7-coupled beads were stored at 4° C. until use. Protein levels were measured using a BioRad protein assay kit, and purified protein preparations were examined by SDS-PAGE followed by Coomassie blue staining and Western blotting. […]\nGST-16E7 or GST-31E7 fusion proteins bound to glutathione-agarose beads were incubated with either purified pRb (QED Bioscience Inc.), His-p21, His-p21N, His-p21C, His-p27, His-p27N, His-p27C, or HEK293 cell lysate at 4° C. for two hours in binding buffer containing 20 mM HEPES, pH 7.4, 10 mM KCl, 1 mM EDTA, 1 mM EGTA, 140 mM NaCl, 13% glycerol, 1 mM DTT, and 1× protease inhibitor tablet (Boehringer Mannheim). […] Eluted proteins were separated using 15% SDS-PAGE and the proteins were analyzed by Coomassie blue staining and Western blotting."}}, "note": "Where no end group is shown, it is not given here.", "data": [{"molecule": "GST: glutathione-S-transferase alone, control for the fusion proteins [reference compound]", "values": [{"measurement": "effect on cyclin A/CDK2 histone H1 kinase activity", "setting": "cyclin A/CDK2", "value": "no effect"}]}, {"molecule": "GST-E7 (20-48): internal HPV16 E7 region, residues 20-48, GST fusion (TDLYCYEQLNDSSEEEDEIDGPAGQAEPD; also: GST fusion partner left off)", "values": [{"measurement": "induced kinase activity, level relative to that by full length E7", "setting": "CDK2", "value": 33, "unit": "%"}]}, {"molecule": "GST-16E7(1-27): HPV16 E7 truncation, residues 1-27, GST fusion (MHGDTPTLHEYMLDLQPETTDLYCYEQ; also: GST fusion partner left off)", "values": [{"measurement": "relative kinase activity compared to activity in the presence of full length E7", "setting": "CDK2", "value": 28.64, "unit": "%"}, {"measurement": "relative kinase activity compared to full length E7, repeat experiment", "setting": "CDK2", "value": 52, "unit": "%"}]}, {"molecule": "GST-16E7 (16-38): internal HPV16 E7 region, residues 16-38, GST fusion", "values": [{"measurement": "induced kinase activity, level relative to that by full length E7", "setting": "CDK2", "value": 53, "unit": "%"}]}, {"molecule": "HPV E7(1-15): HPV16 E7 truncation, residues 1-15, GST fusion (MHGDTPTLHEYMLDL; also: GST fusion partner left off)", "values": [{"measurement": "relative kinase activity compared to activity in the presence of full length E7", "setting": "CDK2", "value": 15, "unit": "%"}]}, {"molecule": "GST-HPV16-E7(39-98): HPV16 E7 amino terminal deletion, residues 39-98, GST fusion (DGPAGQAEPDRAHYNIVTFCCKCDSTLRLCVQSTHVDIRTLEDLLMGTLGIVCPICSQKP; cysteine pairing not given here; also: GST fusion partner left off)", "values": [{"measurement": "activation of cyclinA/CDK2, % of the activation activity of full length GST-HPV 16 E7", "setting": "cyclin A/CDK2", "value": 28.6, "unit": "%"}, {"measurement": "activation potential, repeat experiment", "setting": "cyclin A/CDK2", "value": 18, "unit": "%"}, {"measurement": "induced kinase activity, level relative to that by full length E7", "setting": "CDK2", "value": 18, "unit": "%"}]}, {"molecule": "HPV E7(1-38): HPV16 E7 truncation, residues 1-38, GST fusion (MHGDTPTLHEYMLDLQPETTDLYCYEQLNDSSEEEDEI; also: GST fusion partner left off)", "values": [{"measurement": "relative kinase activity compared to activity in the presence of full length E7", "setting": "CDK2", "value": "approximately 72%"}]}, {"molecule": "HPV E7(1-48): HPV16 E7 truncation, residues 1-48, GST fusion (MHGDTPTLHEYMLDLQPETTDLYCYEQLNDSSEEEDEIDGPAGQAEPD; also: GST fusion partner left off)", "values": [{"measurement": "relative kinase activity compared to activity in the presence of full length E7", "setting": "CDK2", "value": 73.25, "unit": "%"}]}, {"molecule": "B1", "values": [{"measurement": "% Control Activation Exp. 2", "setting": "CDK2", "value": 83.1, "unit": "%"}]}, {"molecule": "B2", "values": [{"measurement": "relative kinase activity compared to activity in the presence of full length E7", "setting": "CDK2", "value": 82.45, "unit": "%"}]}, {"molecule": "B3", "values": [{"measurement": "activation of cyclinA/CDK2, % of the activation activity of full length GST-HPV 16 E7", "setting": "cyclin A/CDK2", "value": 53, "unit": "%"}]}, {"molecule": "B4", "values": [{"measurement": "activation of CDK2 histone kinase activity", "setting": "CDK2", "value": 15.8, "unit": "fold"}]}, {"molecule": "B5", "values": [{"measurement": "binding to pRb in HEK 293 cell lysate", "setting": "pRb; HEK 293 cell lysate", "value": "bound"}, {"measurement": "binding to purified pRb", "setting": "pRb; purified pRb, SDS-PAGE, Coomassie and Western blot", "value": "bound"}, {"measurement": "effect on cyclin A/CDK2 histone H1 kinase activity", "setting": "cyclin A/CDK2", "value": "significant effect"}]}, {"molecule": "B6", "values": [{"measurement": "relative kinase activity compared to activity in the presence of full length E7", "setting": "CDK2", "value": 76.67, "unit": "%"}]}, {"molecule": "B7", "values": [{"measurement": "% Control Activation Exp. 1", "setting": "CDK2", "value": 85.2, "unit": "%"}, {"measurement": "% Control Activation Exp. 2", "setting": "CDK2", "value": 93.5, "unit": "%"}]}, {"molecule": "B8", "values": [{"measurement": "activation of cyclinA/CDK2, % of the activation activity of full length GST-HPV 16 E7", "setting": "cyclin A/CDK2", "value": 64, "unit": "%"}]}]}
